These results are taken from publication PMC2859980.

Positions count from the first letter of the chain named. Names and notes keep the numbering of the source.

A short description of data set [1]: T cell IFN-γ ELISA after acid stripping and re-expression. Conditions: glycan gained; control: same cells without z-vad-fmk.
Data set [2] in a line: cytosolic fraction SDS-PAGE, anti-flag immunoblot. The following applies: glycan gained; control: untreated (cycloheximide only).

B1: tyrosinase: z-vad-fmk, R402Q tyrosinase cells (protein)
parent chain: MLLAVLYCLLWSFQTSAGHFPRACVSSKNLMEKECCPPWSGDRSPCGQLSGRGSCQNILLSNAPLGPQFPFTGVDDRESWPSVFYNRTCQCSGNFMGFNCGNCKFGFWGPNCTERRLLVRRNIFDLSAPEKDKFFAYLTLAKHTISSDYVIPIGTYGQMKNGSTPMFNDINIYDLFVWMHYYVSMDALLGGSEIWRDIDFAHEAPAFLPWHRLFLLRWEQEIQKLTGDENFTIPYWDWRDAEKCDICTDEYMGGQHPTNPNLLSPASFFSSWQIVCSRLEEYNSHQSLCNGTPEGPLRRNPGNHDKSRTPRLPSSADVEFCLSLTQYESGSMDKAANFSFRNTLEGFASPLTGIADASQSSMHNALHIYMNGTMSQVQGSANDPIFLLHHAFVDSIFEQWLQRHRPLQEVYPEANAPIGHNRESYMVPFIPLYRNGDFFISSKDLGYDYSYLQDSDPDSFQDYIKSYLEQASRIWSWLLGAAMVGAVLTALLAGLVSLLCRHKRKQLPEEKQPLLMEKEDYHSLYQSHL
Take B1: in data set [1], the “other: MHC class I epitope presentation” value was “decreases”.

B2: tyrosinase: z-vad-fmk, N371D R402Q tyrosinase cells (protein)
parent chain: B1 parent chain with N371D
For B2, the “other: MHC class I epitope presentation” value in data set [1] is “no change”.

B3: tyrosinase: z-vad-fmk (protein)
parent chain: B1 parent chain with Q402R
Take B3: the degradation_or_half_life entry in data set [2] is listed as “no change”.
